Measured values reported in paper PMC5374433, “Theranostic Value of Multimers: Lessons Learned from Trimerization of Neurotensin Receptor Ligands and Other Targeting Vectors” (Pharmaceuticals, 2017).
Where two headings read alike, the source gives them in different places.

How the values were obtained:
[1] = Small animal PET imaging of HT29 tumor-bearing mice; details: mouse, in vivo, molar radioactivities of more than 20 MBq/nmol, read-out: highest tumor uptake values by PET
Protocol: The highest tumor uptake values of approximately 2 %ID/g were determined with molar radioactivities of more than 20 MBq/nmol. […] Considering all eight mice, which were repeatedly measured by PET with varying molar radioactivities of [^68Ga]Ga-TRAP(NT4)3, a good correlation of molar radioactivity and tumor uptake could be observed (Figure 4b; r = 0.713, Spearman correlation, p < 0.0004).
PET scans and image analysis were performed using a small-animal PET scanner (Inveon, Siemens Medical Solutions, Erlangen, Germany). About 1.5–4 MBq of [^68Ga]Ga-TRAP(NT4)3 with varying amounts of 0.02–10 nmol TRAP(NT4)3 were intravenously injected into the mice under isoflurane anesthesia (4%). Animals were subjected to a 60 min dynamic scan starting with tracer injection. After iterative maximum a posteriori image reconstruction of the decay- and attenuation-corrected images, regions of interest (ROIs) were drawn over the tumor. The radioactivity concentration within the tumor region was obtained from the mean value within the multiple ROIs and then converted to SUV relative to the injected dose and the individual body weight.

human NTS1 = human NTS1 (Homo sapiens, UniProt P30989); test: Competitive radioligand binding assay, NTS1; details: Ki (NTS1, nM), membranes of CHO cells stably expressing human NTS1; mean ± SEM, 4-8 experiments
Protocol: Receptor binding data were performed as described previously. […] NTS2 binding was conducted using homogenates of membranes from HEK 293 cells transiently transfected with pcDNA3.1 carrying the human NTS2 gene (Missouri S&T cDNA Resource Center (UMR), Rolla, MO, USA) using the Mirus TransIT-293 transfection reagent (MoBiTec, Göttingen, Germany) according to the manufacturer’s protocol.
Data analysis of the competition binding curves from the radioligand displacement experiments was done by non-linear regression analysis when applying the algorithms of the PRISM 6.0 software package (GraphPad Software, San Diego, CA, USA). EC50 values were derived from each dose-response curve and were subsequently transformed into the corresponding Ki values by applying the equation of Cheng and Prusoff. Mean Ki values and the corresponding S.E.M. values (standard error of the mean) were determined by analyzing four to eight individual experiments.

[2] = system: HT29 xenografted nude mice; test: Biodistribution in HT29 tumor-bearing nude mice; assay type: in vivo, mouse
Protocol: (§1) For in vivo evaluation of [^68Ga]Ga-TRAP(NT4)3 the NTS1-positive human colorectal adenocarcinoma cells HT29 were injected in nude mice to generate a subcutaneous tumor. The radioligand was injected in the tail vein of the mice and the biodistribution was determined 60 and 90 min after tracer injection. […] The clearance rate of [^68Ga]Ga-TRAP(NT4)3 in these excretion organs was apparently low. […] (1.44 %ID/g). Blocking experiments were performed to confirm the specificity of the tumor uptake of [^68Ga]Ga-TRAP(NT4)3 in vivo. Therefore, TRAP(NT4)3 (20 nmol) or NT4 (100 nmol) were co-injected together with the radiotracer to define the nonspecific uptake of the tracer in the tumor region. […] Apart from the intestine, the uptake in all other organs was not affected by the blocking substances (Table 2), confirming the receptor-mediated uptake of [^68Ga]Ga-TRAP(NT4)3, as it was reported that NTS receptors are expressed in the small intestine of mice.
(§2) All animal experiments were performed in compliance with the protocols approved by the local Animal Protection Authorities (Regierung Mittelfranken, Germany, no. 54-2532.1-15/08). Female athymic NMRI nude mice (nu/nu) were obtained from Harlan Winkelmann GmbH (Borchen, Germany) at four weeks of age and were kept under standard conditions (12 h light/dark) with food and water available ad libitum for at least five weeks. HT29 tumors were generated as described before.
(§3) HT29 xenografted nude mice were injected with [^68Ga]Ga-TRAP(NT4)3 into a tail vein (2.5–7.5 MBq/mouse). The animals were killed by cervical dislocation 60 or 90 min p.i. The tumors, other tissues (lung, liver, kidneys, heart, spleen, brain, muscle, femur, and intestine) and blood were removed and weighed. Radioactivity of the samples was measured using a γ-counter and expressed as the percentage of injected dose per gram of tissue (%ID/g), from which tumor-to-blood ratios were calculated. Blocking experiments were carried out by co-injecting randomly chosen mice with TRAP(NT4)3 (20 nmol/mouse) or NT4 (100 nmol/mouse) together with the radiotracer. These mice were killed by cervical dislocation at 60 min p.i., and organs and tissue were removed, weighed, and counted as described above.

[3] = Biodistribution in HT29 tumor-bearing nude mice; assay type: in vivo, mouse; details: mouse; for tissue uptake at 1.5 h / tissue uptake at 1 h: in vivo
Protocol: as §1, §2, §3

[4] = assay type: in vivo; details: mouse blood sample taken 5 min after injection, HPLC
Protocol: The in vivo stability of [^68Ga]Ga-TRAP(NT4)3 was measured from a blood sample taken 5 min after injection in mice. […] Unfortunately, it was not possible to determine the stability at later time points due to the low amount of residual radioactivity in the blood.

human NTS1, sequence (P30989 whole entry): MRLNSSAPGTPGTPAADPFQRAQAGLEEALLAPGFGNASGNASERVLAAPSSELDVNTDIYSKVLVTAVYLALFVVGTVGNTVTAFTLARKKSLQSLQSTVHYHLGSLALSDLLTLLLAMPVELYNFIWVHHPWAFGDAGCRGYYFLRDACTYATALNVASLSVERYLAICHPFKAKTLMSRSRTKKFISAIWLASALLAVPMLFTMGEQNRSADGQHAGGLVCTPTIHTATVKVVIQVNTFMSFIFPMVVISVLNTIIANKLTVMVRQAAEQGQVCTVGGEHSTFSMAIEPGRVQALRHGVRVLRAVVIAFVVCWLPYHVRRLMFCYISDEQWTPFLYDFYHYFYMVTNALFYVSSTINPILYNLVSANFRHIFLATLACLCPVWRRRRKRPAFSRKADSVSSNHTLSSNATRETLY

CC(C)C[C@H](NC(=O)[C@@H](NC(=O)[C@H](Cc1ccc(O)cc1)NC(=O)[C@@H]1CCCN1C(=O)[C@H](CCCCN)NC(=O)CN(CCCCN)C(=O)[C@@H](N)CCCCn1cc(CNC(=O)CCP(=O)(O)CN2CCN(CP(=O)(O)CCC(=O)NCc3cn(CCCC[C@H](N)C(=O)N(CCCCN)CC(=O)N[C@@H](CCCCN)C(=O)N4CCC[C@H]4C(=O)N[C@@H](Cc4ccc(O)cc4)C(=O)N[C@H](C(=O)N[C@@H](CC(C)C)C(=O)O)C(C)(C)C)nn3)CCN(CP(=O)(O)CCC(=O)NCc3cn(CCCC[C@H](N)C(=O)N(CCCCN)CC(=O)N[C@@H](CCCCN)C(=O)N4CCC[C@H]4C(=O)N[C@@H](Cc4ccc(O)cc4)C(=O)N[C@H](C(=O)N[C@@H](CC(C)C)C(=O)O)C(C)(C)C)nn3)CC2)nn1)C(C)(C)C)C(=O)O (single isomer, unassigned) [[^68Ga]Ga-TRAP(NT4)3, metal not drawn]
tissue uptake [1]: ~2 %ID/g
Ki (human NTS1): 0.1 nM
HT29 tumor uptake ([2]; 60 min p.i.): 1.74 ± 0.21 %ID/g
tumor uptake compared to monomeric analogs ([2]; HT29 tumor): two-fold
tissue to tissue ratio at 1 h ([3]; female, athymic NMRI nude (nu/nu), HT29 tumor / blood, iv, total radioactivity, 60 min p.i.): 13
tissue to tissue ratio at 1.5 h ([3]; female, athymic NMRI nude (nu/nu), HT29 tumor / blood, iv, total radioactivity, 90 min p.i.): 36
SUV at 1 h ([3]; female, athymic NMRI nude (nu/nu), HT29 tumor, iv, total radioactivity, 60 min p.i., equals 1.7 %ID/g): ~0.7 SUV
tissue uptake at 1.5 h ([3]; 60 and 90 min p.i., read-out: uptake in the liver): 11 to 12 %ID/g
tissue uptake at 1.5 h ([3]; 60 and 90 min p.i., read-out: uptake values in the kidneys): 55 to 102 %ID/g
tissue uptake at 1 h ([3]; 60 min p.i., blocking: co-injection of NT4 (100 nmol per mouse), read-out: HT29 tumor uptake): 0.6 ± 0.13 %ID/g
tissue uptake at 1 h ([3]; 60 min p.i., blocking: co-injection of NT4 (100 nmol per mouse), read-out: blood uptake): 0.4 ± 0.01 %ID/g
tissue uptake at 1 h ([3]; 60 min p.i., blocking: co-injection of NT4 (100 nmol per mouse), read-out: brain uptake): 0.07 ± 0.02 %ID/g
tissue uptake at 1 h ([3]; 60 min p.i., blocking: co-injection of NT4 (100 nmol per mouse), read-out: femur uptake): 1.72 ± 0.12 %ID/g
tissue uptake at 1 h ([3]; 60 min p.i., blocking: co-injection of NT4 (100 nmol per mouse), read-out: heart uptake): 0.45 ± 0.13 %ID/g
tissue uptake at 1 h ([3]; 60 min p.i., blocking: co-injection of NT4 (100 nmol per mouse), read-out: intestine uptake): 0.49 ± 0.07 %ID/g
tissue uptake at 1 h ([3]; 60 min p.i., blocking: co-injection of NT4 (100 nmol per mouse), read-out: kidney uptake): 99.9 ± 15.5 %ID/g
tissue uptake at 1 h ([3]; 60 min p.i., blocking: co-injection of NT4 (100 nmol per mouse), read-out: liver uptake): 11.2 ± 2.27 %ID/g
tissue uptake at 1 h ([3]; 60 min p.i., blocking: co-injection of NT4 (100 nmol per mouse), read-out: lung uptake): 6.06 ± 1.19 %ID/g
tissue uptake at 1 h ([3]; 60 min p.i., blocking: co-injection of NT4 (100 nmol per mouse), read-out: muscle uptake): 0.16 ± 0.03 %ID/g
tissue uptake at 1 h ([3]; 60 min p.i., blocking: co-injection of NT4 (100 nmol per mouse), read-out: spleen uptake): 3.75 ± 0.81 %ID/g
tissue uptake at 1 h ([3]; 60 min p.i., blocking: co-injection of TRAP(NT4)3 (20 nmol per mouse), read-out: HT29 tumor uptake): 1.1 ± 0.2 %ID/g
tissue uptake at 1 h ([3]; 60 min p.i., blocking: co-injection of TRAP(NT4)3 (20 nmol per mouse), read-out: blood uptake): 0.07 ± 0.01 %ID/g
tissue uptake at 1 h ([3]; 60 min p.i., blocking: co-injection of TRAP(NT4)3 (20 nmol per mouse), read-out: brain uptake): 0.06 ± 0.07 %ID/g
tissue uptake at 1 h ([3]; 60 min p.i., blocking: co-injection of TRAP(NT4)3 (20 nmol per mouse), read-out: femur uptake): 0.74 ± 0.14 %ID/g
tissue uptake at 1 h ([3]; 60 min p.i., blocking: co-injection of TRAP(NT4)3 (20 nmol per mouse), read-out: heart uptake): 0.15 ± 0.11 %ID/g
tissue uptake at 1 h ([3]; 60 min p.i., blocking: co-injection of TRAP(NT4)3 (20 nmol per mouse), read-out: intestine uptake): 0.49 ± 0.08 %ID/g
tissue uptake at 1 h ([3]; 60 min p.i., blocking: co-injection of TRAP(NT4)3 (20 nmol per mouse), read-out: kidney uptake): 96.3 ± 8.83 %ID/g
tissue uptake at 1 h ([3]; 60 min p.i., blocking: co-injection of TRAP(NT4)3 (20 nmol per mouse), read-out: liver uptake): 8.3 ± 0.87 %ID/g
tissue uptake at 1 h ([3]; 60 min p.i., blocking: co-injection of TRAP(NT4)3 (20 nmol per mouse), read-out: lung uptake): 1.61 ± 0.42 %ID/g
tissue uptake at 1 h ([3]; 60 min p.i., blocking: co-injection of TRAP(NT4)3 (20 nmol per mouse), read-out: muscle uptake): 0.1 ± 0.05 %ID/g
tissue uptake at 1 h ([3]; 60 min p.i., blocking: co-injection of TRAP(NT4)3 (20 nmol per mouse), read-out: spleen uptake): 2.2 ± 0.39 %ID/g
tissue uptake at 1 h ([3]; 60 min p.i., read-out: HT29 tumor uptake): 1.7 %ID/g
tissue uptake at 1 h ([3]; 60 min p.i., read-out: blood uptake): 0.13 ± 0.02 %ID/g
tissue uptake at 1 h ([3]; 60 min p.i., read-out: brain uptake): 0.04 ± 0.01 %ID/g
tissue uptake at 1 h ([3]; 60 min p.i., read-out: femur uptake): 1.51 ± 0.12 %ID/g
tissue uptake at 1 h ([3]; 60 min p.i., read-out: heart uptake): 0.13 ± 0.02 %ID/g
tissue uptake at 1 h ([3]; 60 min p.i., read-out: intestine uptake): 1.5 ± 0.42 %ID/g
tissue uptake at 1 h ([3]; 60 min p.i., read-out: kidney uptake): 94.5 ± 10.8 %ID/g
tissue uptake at 1 h ([3]; 60 min p.i., read-out: liver uptake): 11.2 ± 0.3 %ID/g
tissue uptake at 1 h ([3]; 60 min p.i., read-out: lung uptake): 2.76 ± 0.53 %ID/g
tissue uptake at 1 h ([3]; 60 min p.i., read-out: muscle uptake): 0.09 ± 0.03 %ID/g
tissue uptake at 1 h ([3]; 60 min p.i., read-out: spleen uptake): 3.72 ± 0.09 %ID/g
tissue uptake at 1.5 h ([3]; 90 min p.i., read-out: HT29 tumor uptake): 1.44 ± 0.13 %ID/g
tissue uptake at 1.5 h ([3]; 90 min p.i., read-out: blood uptake): 0.04 ± 0.02 %ID/g
tissue uptake at 1.5 h ([3]; 90 min p.i., read-out: brain uptake): 0.02 ± 0.01 %ID/g
tissue uptake at 1.5 h ([3]; 90 min p.i., read-out: femur uptake): 1.17 ± 0.21 %ID/g
tissue uptake at 1.5 h ([3]; 90 min p.i., read-out: heart uptake): 0.35 ± 0.37 %ID/g
tissue uptake at 1.5 h ([3]; 90 min p.i., read-out: intestine uptake): 1.31 ± 0.2 %ID/g
tissue uptake at 1.5 h ([3]; 90 min p.i., read-out: kidney uptake): 102 ± 29.9 %ID/g
tissue uptake at 1.5 h ([3]; 90 min p.i., read-out: liver uptake): 11.7 ± 0.48 %ID/g
tissue uptake at 1.5 h ([3]; 90 min p.i., read-out: lung uptake): 2.37 ± 0.21 %ID/g
tissue uptake at 1.5 h ([3]; 90 min p.i., read-out: muscle uptake): 0.11 ± 0.08 %ID/g
tissue uptake at 1.5 h ([3]; 90 min p.i., read-out: spleen uptake): 3.45 ± 0.38 %ID/g
formation of a more hydrophilic radiometabolite [4]: 8%
